The target in test [1] is T1, human β3 complexed to endogenous mouse αv (Homo sapiens, UniProt P05106).
T1 construct: expressed in transfected cells; host or cells: B16F10 mouse melanoma
T1 sequence (P05106 27-788): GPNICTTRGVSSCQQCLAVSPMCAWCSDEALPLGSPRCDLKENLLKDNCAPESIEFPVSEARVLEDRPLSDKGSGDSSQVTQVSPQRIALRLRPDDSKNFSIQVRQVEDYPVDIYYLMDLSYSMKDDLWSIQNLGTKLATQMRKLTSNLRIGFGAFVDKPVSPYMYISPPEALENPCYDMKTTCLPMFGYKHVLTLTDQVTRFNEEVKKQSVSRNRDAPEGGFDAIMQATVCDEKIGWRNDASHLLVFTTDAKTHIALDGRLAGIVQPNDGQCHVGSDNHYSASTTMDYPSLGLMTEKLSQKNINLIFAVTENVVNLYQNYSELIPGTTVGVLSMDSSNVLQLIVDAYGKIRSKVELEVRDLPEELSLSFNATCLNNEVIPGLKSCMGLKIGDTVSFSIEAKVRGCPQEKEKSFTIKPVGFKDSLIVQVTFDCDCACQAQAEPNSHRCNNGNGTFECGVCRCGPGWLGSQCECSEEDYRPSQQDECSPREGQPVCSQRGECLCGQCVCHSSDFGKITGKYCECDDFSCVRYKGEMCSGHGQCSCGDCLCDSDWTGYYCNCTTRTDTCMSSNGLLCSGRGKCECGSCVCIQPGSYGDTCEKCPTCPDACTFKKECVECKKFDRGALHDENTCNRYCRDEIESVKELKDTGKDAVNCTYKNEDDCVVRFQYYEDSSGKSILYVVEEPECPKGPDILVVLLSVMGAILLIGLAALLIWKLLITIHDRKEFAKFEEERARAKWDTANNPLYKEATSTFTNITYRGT
T1 sequence (P43406 31-885 partner limits assumed): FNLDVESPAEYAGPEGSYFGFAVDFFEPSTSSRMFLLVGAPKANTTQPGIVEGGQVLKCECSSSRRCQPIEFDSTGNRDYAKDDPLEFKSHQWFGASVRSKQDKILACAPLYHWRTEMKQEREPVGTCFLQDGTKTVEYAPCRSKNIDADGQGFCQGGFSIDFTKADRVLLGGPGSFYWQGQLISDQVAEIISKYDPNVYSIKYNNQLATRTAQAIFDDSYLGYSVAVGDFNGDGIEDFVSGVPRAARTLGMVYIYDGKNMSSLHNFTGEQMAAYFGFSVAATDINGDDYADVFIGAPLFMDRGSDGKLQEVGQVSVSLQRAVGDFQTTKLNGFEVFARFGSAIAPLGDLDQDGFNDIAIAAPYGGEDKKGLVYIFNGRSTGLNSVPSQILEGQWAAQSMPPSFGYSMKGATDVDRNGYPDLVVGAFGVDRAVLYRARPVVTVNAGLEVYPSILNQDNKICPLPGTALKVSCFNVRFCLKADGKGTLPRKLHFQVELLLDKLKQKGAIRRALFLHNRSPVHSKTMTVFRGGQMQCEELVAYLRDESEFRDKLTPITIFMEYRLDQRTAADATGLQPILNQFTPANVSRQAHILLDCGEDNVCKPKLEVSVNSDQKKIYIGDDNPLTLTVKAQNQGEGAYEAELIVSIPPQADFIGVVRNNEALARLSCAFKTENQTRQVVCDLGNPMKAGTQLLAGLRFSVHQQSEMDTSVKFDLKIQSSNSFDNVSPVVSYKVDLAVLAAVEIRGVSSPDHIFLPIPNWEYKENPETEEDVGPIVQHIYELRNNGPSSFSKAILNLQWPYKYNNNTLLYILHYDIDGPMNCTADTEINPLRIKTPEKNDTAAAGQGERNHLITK
T1 sequence (P43406 887-1044 partner limits assumed): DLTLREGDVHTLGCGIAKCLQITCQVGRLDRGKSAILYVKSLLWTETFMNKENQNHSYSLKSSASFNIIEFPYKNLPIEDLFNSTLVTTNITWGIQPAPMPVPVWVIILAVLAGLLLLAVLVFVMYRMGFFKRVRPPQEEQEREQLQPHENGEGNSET
Briefly: Flow cytometric analysis of binding to human β3 transfected B16F10 cells. The following applies: mouse melanoma B16F10, human β3 with endogenous mouse αv, FACS, FIG. 3. Here is the method: FIG. 3. Flow cytometric analysis of binding of Vitaxin® to human β3 transfected B16F10 cells. In order to determine the binding specificity of Vitaxin® for αvβ3, the mouse melanoma line B16F10 was transfected with an expression vector encoding the human β3 gene. Cells were analyzed by FACS for expression of β3 expressed with the endogenous mouse αv.
Background: In flow cytometry, cells or beads pass a laser one at a time.

The next test deals with T2, mouse Integrin αVβ3 (Mus musculus, UniProt O54890).
T2 sequence (O54890 26-787): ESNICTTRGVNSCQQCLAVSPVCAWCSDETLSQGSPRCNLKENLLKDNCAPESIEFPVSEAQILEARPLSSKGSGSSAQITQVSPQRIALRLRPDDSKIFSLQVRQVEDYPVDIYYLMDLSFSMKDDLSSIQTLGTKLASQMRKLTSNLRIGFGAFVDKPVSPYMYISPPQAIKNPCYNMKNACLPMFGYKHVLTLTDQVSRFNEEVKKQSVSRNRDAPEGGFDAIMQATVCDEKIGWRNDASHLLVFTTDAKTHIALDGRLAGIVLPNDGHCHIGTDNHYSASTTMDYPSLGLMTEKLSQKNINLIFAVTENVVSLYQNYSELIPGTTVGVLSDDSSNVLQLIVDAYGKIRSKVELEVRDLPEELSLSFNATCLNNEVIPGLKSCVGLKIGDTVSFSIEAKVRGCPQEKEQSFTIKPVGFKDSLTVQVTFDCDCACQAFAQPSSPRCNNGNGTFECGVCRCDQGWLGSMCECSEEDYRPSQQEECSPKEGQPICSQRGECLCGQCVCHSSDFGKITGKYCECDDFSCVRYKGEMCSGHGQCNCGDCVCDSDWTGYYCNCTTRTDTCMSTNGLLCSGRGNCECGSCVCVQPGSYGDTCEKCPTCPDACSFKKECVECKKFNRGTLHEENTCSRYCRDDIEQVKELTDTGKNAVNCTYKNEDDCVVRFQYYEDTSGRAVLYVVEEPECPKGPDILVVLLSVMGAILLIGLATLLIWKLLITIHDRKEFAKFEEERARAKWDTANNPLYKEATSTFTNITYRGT
T2 sequence (P43406 31-885 partner limits assumed): T1 sequence (P43406 31-885 partner limits assumed)
T2 sequence (P43406 887-1044 partner limits assumed): T1 sequence (P43406 887-1044 partner limits assumed)
Briefly: Binding to mouse Integrin αVβ3.

“Also recorded” adds a separate entry of the source.

B1: Vitaxin®: humanized blocking monoclonal antibody that binds Integrin αVβ3 (MEDI-522, MedImmune); humanized and optimized version of LM609 (antibody, chains of the INN, looked up, V domains shown)
VH: QVQLVESGGGVVQPGRSLRLSCAASGFTFSSYDMSWVRQAPGKGLEWVAKVSSGGGSTYYLDTVQGRFTISRDNSKNTLYLQMNSLRAEDTAVYYCARHLHGSFASWGQGTTVTVSS
VL: EIVLTQSPATLSLSPGERATLSCQASQSISNFLHWYQQRPGQAPRLLIRYRSQSISGIPARFSGSGSGTDFTLTISSLEPEDFAVYYCQQSGSWPLTFGGGTKVEIK
As to B1, the “binding to human β3 transfected B16F10 cells” value in test [1] is “bound; also recorded: recognized the transfected cells”. Further, the “binding to mouse Integrin αVβ3” value with mouse Integrin αVβ3 is given as “do not bind”.

For the origin of these results see US20040001835A1, “Prevention or treatment of cancer using integrin alphavbeta3 antagonists in combination with other agents” (MedImmune, Inc., priority 2002, published 2004).
